In article PMC5769772:

Legend:
hnRNPF (recombinant) [1] = biological target: T1, hnRNPF (recombinant) (human, UniProt P52597 1-415); assay: EMSA
T1 sequence: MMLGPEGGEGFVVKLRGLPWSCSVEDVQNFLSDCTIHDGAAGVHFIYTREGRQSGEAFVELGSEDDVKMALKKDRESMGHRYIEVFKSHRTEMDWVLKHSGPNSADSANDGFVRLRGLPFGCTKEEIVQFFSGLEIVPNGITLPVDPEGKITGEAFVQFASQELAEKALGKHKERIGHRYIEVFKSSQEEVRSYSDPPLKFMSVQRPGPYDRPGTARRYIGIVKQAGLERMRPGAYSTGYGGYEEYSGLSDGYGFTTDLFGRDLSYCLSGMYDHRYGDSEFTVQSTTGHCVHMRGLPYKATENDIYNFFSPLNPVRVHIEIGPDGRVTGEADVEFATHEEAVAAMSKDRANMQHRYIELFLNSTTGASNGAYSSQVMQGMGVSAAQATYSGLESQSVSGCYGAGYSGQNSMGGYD

hnRNPF (recombinant) [2] = biological target: T1, hnRNPF (recombinant); assay: EMSA; remark: listed apart in the source
hnRNPF (recombinant) [3] = biological target: T1, hnRNPF (recombinant); assay: pull-down

GCUUUGAUGAUGAAAUGAUGCUAUGUGG (ssRNA) [I-8 G4m]
binding result (hnRNPF (recombinant) [1]): no binding

GCUUUGGUGGUGGAAUGGUGCUAUGUGG (structured_RNA) [I-8]
binding result (hnRNPF (recombinant) [2]): binds

GCUUUGGUGGUGGAAUGGUGCUAUGUGG (structured_RNA) [Biotin-I-8-wt]
binding result (hnRNPF (recombinant) [3]): binds
